The target of one data set is T1, EVNL-SSHD.
T1 chain: EVNLSSHD

The target in a further data set is T2, EVNL-DAHF.
T2 chain: EVNLDAHF

The next data set addresses T3, EVNF-EVEF.
T3 chain: EVNFEVEF

The target in the next data set is T4, DETL-DAHF.
T4 chain: DETLDAHF

Another data set deals with T5, EVNL-DAEF.
T5 chain: EVNLDAEF

The target of a further data set is T6, EIDL-MVLD.
T6 chain: EIDLMVLD

For another data set, the target named is T7, APSL-DAHF.
T7 chain: APSLDAHF

The next data set concerns the target T8, ASNL-DAHF.
T8 chain: ASNLDAHF

The target of another data set is T9, EIDL-SSHD.
T9 chain: EIDLSSHD

The next data set deals with T10, EI(Thi)(Thi)-(Nva)AHF.
T10 chain: EIXXXAHF

B1: BACE enzyme (beta-secretase) (protein)
chain: ETDEEPEEPGRRGSFVEMVDNLRGKSGQGYYVEMTVGSPPQTLNILVDTGSSNFAVGAAPHPFLHRYYQRQLSSTYRDLRKGVYVPYTQGKWEGELGTDLVSIPHGPNVTVRANIAAITESDKFFINGSNWEGILGLAYAEIARPDDSLEPFFDSLVKQTHVPNLFSLQLCGAGFPLNQSEVLASVGGSMIIGGIDHSLYTGSLWYTPIRREWYYEVIIVRVEINGQDLKMDCKEYNYDKSIVDSGTTNLRLPKKVFEAAVKSIKAASSTEKFPDGFWLGEQLVCWQAGTTPWNIFPVISLYLMGEVTNQSFRITILPQQYLRPVEDVATSQDDCYKFAISQSSTGTVMGAVIMEGFYVVFDRARKRIGFAVSACHVHDEFRTAAVEGPFVTLDMEDCGYNIPQTDESTLMTIAY
For B1, the “Percent Cleavage after 10 hr Incubation with BACE” value with EVNL-SSHD was determined as 3.5%; with EVNL-DAHF, 50%; with EVNF-EVEF it was 85%; in the data set with DETL-DAHF, 1%; with EVNL-DAEF it was 50%; with EIDL-MVLD, 20%. The “Percent Cleavage after 10 hr Incubation with BACE” value in the data set with APSL-DAHF is on record as 0.5%; in the data set with ASNL-DAHF it was “Not Detected”; with EIDL-SSHD, 5%; in the data set with EI(Thi)(Thi)-(Nva)AHF it was 25%.
